The experiment deals with human p21-activated kinase 1 (PAK1) (human) (UniProt Q13153). As to the kind of experiment: cell-based or functional assay.

Take “PAK1 inhibitory domain (PAK1-ID), HA-tagged PAK1 residues 83 to 149”: the inhibition of IL-1β induced expression of PGE2 in SW1353 cells (ELISA of supernatants) is above 50%, the inhibition of IL-1β-induced expression of MMP13 in SW1353 cells (ELISA of supernatants) stood at 55% and the inhibition of basal MMP13 expression in non-stimulated SW1353 cells (ELISA of supernatants) is above 80%.

The values are drawn from US20050037965A1.
